Measurements reported in publication PMC2119102 (The Journal of Experimental Medicine, 1992).

Molecular target: T1, human interleukin 5 receptor encoded by cDNA clone lambda-h5R.27 (human, UniProt Q01344 21-395)
T1 sequence: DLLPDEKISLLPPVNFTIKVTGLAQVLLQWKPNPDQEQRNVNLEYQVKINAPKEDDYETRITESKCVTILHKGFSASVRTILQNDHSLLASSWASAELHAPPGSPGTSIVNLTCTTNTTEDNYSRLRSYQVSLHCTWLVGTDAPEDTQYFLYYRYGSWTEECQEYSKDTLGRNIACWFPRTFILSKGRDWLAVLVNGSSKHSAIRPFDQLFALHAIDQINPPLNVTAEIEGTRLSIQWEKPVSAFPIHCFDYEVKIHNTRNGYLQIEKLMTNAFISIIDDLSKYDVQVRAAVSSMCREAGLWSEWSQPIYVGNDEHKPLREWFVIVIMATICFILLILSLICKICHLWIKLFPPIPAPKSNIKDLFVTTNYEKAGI
Assay: radioligand binding

Kd: 0.25 nM
B1: recombinant murine interleukin 5, 35S-methionine labelled (ligand, mouse, UniProt P04401 21-133, looked up)
chain: MEIPMSTVVKETLTQLSAHRALLTSNETMRLPVPTHKNHQLCIGEIFQGLDILKNQTVRGGTVEMLFQNLSLIKKYIDRQKEKCGEERRRTRQFLDYLQEFLGVMSTEWAMEG
modifications: 35S-methionine labelled
